# Read-outs that look alike come from different tables or passages of the source.
# T1: cell-surface, GPI-anchored murine JUNO on HEK293F cells (murine, UniProt Q9EQF4 20-222)
# T1 sequence: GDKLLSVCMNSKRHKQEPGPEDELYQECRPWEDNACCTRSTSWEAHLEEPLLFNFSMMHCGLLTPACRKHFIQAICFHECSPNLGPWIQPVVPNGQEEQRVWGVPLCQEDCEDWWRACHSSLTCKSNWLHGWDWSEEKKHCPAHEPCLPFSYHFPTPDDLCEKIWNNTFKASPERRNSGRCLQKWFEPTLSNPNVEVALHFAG
# B1: recombinant murine IZUMO1-human Fc fusion protein (Fc fusion)
# chain: CIKCDQFVTDALKTFENTYLNDHLPHDIHKNVMRMVNHEVSSFGVVTSAEDSYLGAVDENTLEQATWSFLKDLKRITDSDLKGELFIKELLWMLRHQKDIFNNLARQFQKEVLCPNKCGVMSQTLIWCLKCEKQLHICRKSLDCGERHIEVHRSEDLVLDCLLSWHRASKGLTDYSFYRVWENSSETLIAKGKEPYLTKSMVGPEDAGNYRCVLDTINQGHATVIRYDVTVLPPKHSEENQPPNIITQEEHETPVHVTPQTPPGQEPESELYPELHPELYPELIPTVAQNPEKKMKTR
# Legend:
# [1] = biological target: cell-surface, GPI-anchored hamster JUNO on HEK293F cells (hamster); experiment: flow cytometry on cells
# [2] = biological target: cell-surface, GPI-anchored murine JUNO on HEK293F cells (murine) (UniProt Q9EQF4); experiment: flow cytometry on cells
# [3] = biological target: IZUMO1-Fc prebound to OBF13^HAC (scFv) (murine) (UniProt Q9D9J7); experiment: BLI
# [4] = biological target: recombinant murine IZUMO1-human Fc fusion protein (murine) (UniProt Q9D9J7); experiment: BLI
# [5] = biological target: IZUMO1-Fc prebound to OBF13 (IgM) (murine) (UniProt Q9D9J7); experiment: BLI
# [6] = biological target: T1, cell-surface, GPI-anchored murine JUNO …; experiment: flow cytometry on cells
# [7] = biological target: cell-surface, GPI-anchored hamster JUNO on HEK293F cells (hamster); experiment: flow cytometry on cells; remark: listed apart in the source
Molecule,fold decrease in kon against IZUMO1 alone [3] [fold],Kd [4] [nM],fold decrease in kon against IZUMO1 alone [5] [fold],also measured
IZUMO1-Fc prebound to OBF13 (IgM) (from UniProt Q9D9J7 22-319) (complex),–,–,–,EC50 [1]: 1.4 nM; EC50 [2]: 551 nM
murine JUNO ectodomain (domain or fragment),3,11000,3,Kd [3]: 33800 nM; Kd [5]: 30100 nM
hamster JUNO ectodomain (domain or fragment),2,659,2,–
B1,–,–,–,EC50 [6]: 10.7 nM; EC50 [7]: 0.198 nM

# — article PMC11912406 (Proceedings of the National Academy of Sciences of the …, 2025)
